Results from patent US20240327815A1 (Zymeworks, published 2024).

B1: Etesevimab (antibody, V domains shown)
VH: EVQLVESGGGLVQPGGSLRLSCAASGFTVSSNYMSWVRQAPGKGLEWVSVIYSGGSTFYADSVKGRFTISRDNSMNTLFLQMNSLRAEDTAVYYCARVLPMYGDYLDYWGQGTLVTVSS
VL: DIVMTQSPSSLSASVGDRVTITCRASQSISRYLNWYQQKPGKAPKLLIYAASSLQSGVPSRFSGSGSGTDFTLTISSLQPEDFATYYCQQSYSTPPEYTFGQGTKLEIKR
B2: REGN10987 (Imdevimab) (antibody, V domains shown)
VH: QVQLVESGGGVVQPGRSLRLSCAASGFTFSNYAMYWVRQAPGKGLEWVAVISYDGSNKYYADSVKGRFTISRDNSKNTLYLQMNSLRTEDTAVYYCASGSDYGDYLLVYWGQGTLVTVSS
VL: QSALTQPASVSGSPGQSITISCTGTSSDVGGYNYVSWYQQHPGKAPKLMIYDVSKRPSGVSNRFSGSKSGNTASLTISGLQSEDEADYYCNSLTSISTWVFGGGTKLTVLR
B3: Bamlanivimab (antibody, V domains shown)
VH: QVQLVQSGAEVKKPGSSVKVSCKASGGTFSNYAISWVRQAPGQGLEWMGRIIPILGIANYAQKFQGRVTITADKSTSTAYMELSSLRSEDTAVYYCARGYYEARHYYYYYAMDVWGQGTAVTVSS
VL: not shown
B4: REGN10933 (Casirivimab) (antibody, V domains shown)
VH: QVQLVESGGGLVKPGGSLRLSCAASGFTFSDYYMSWIRQAPGKGLEWVSYITYSGSTIYYADSVKGRFTISRDNAKSSLYLQMNSLRAEDTAVYYCARDRGTTMVPFDYWGQGTLVTVSS
VL: DIQMTQSPSSLSASVGDRVTITCQASQDITNYLNWYQQKPGKAPKLLIYAASNLETGVPSRFSGSGSGTDFTFTISGLQPEDIATYYCQQYDNLPLTFGGGTKVEIKR

Legend:
[1] = target: WT SARS-CoV-2 spike protein, plate-coated (MSD V-Plex) (SARS-CoV-2, UniProt P0DTC2 14-1208); assay: MSD competition vs labelled ACE2
[2] = target: T1, full length wild type SARS-CoV-2 spike glycoprotein on pseudotyped lentivirus (SARS-CoV-2, UniProt P0DTC2 14-1273); assay: cell-based or functional assay
[3] = target: T1, full length wild type SARS-CoV-2 spike …; assay: cell-based or functional assay; remark: listed apart in the source

Row | Binder | IC50 [1] | %-inhibition EC50 (M), pseudovirus neutralization [2] | Bmax (% inhibition) [2] | RLU EC50 (M), pseudovirus neutralization [2] | Pseudovirus Neutralization (IC50, nM) [3]
1 | B1 | 0.51 nM | – | – | – | –
2 | B2 | – | 2.9e-09 M | 116% | 2.9e-09 M | 4.76 nM
3 | B3 | – | – | 100% | – | 2.29 nM
4 | B4 | – | 1.1e-10 M | – | 1e-10 M | 0.05 nM
